Reference: the supplement of paper PMC5998384

How the values were obtained:
[1] = tested on: HeLa Kyoto; test: thermal stability score vs G1/S (z-score of summed log2 fold changes over temperatures); higher = more thermally stable than in G1/S
[2] = tested on: HeLa Kyoto; test: solubility in G1/S (NP-40 vs SDS abundance) (log2 ratio); higher = more soluble; details: cell cycle stage: G1/S
[3] = tested on: HeLa Kyoto; test: melting temperature (median over replicates), in situ; higher = more thermally stable
[4] = tested on: HeLa Kyoto; test: solubility change mitosis vs G1/S (difference of NP-40 vs SDS log2 ratios) (log2 ratio difference); higher = more soluble in mitosis
[5] = cell cycle stage: early G1 (4.5 h after nocodazole release)
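Throughout, for melting temperature (median over replicates), in situ: HeLa Kyoto cells synchronized by double thymidine or nocodazole block, proteins quantified by TMT10plex mass spectrometry, three independent biological replicates.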
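Throughout, for solubility change mitosis vs G1/S (difference of NP-40 vs SDS log2 ratios): synchronized HeLa Kyoto cells (double thymidine block for G1/S, nocodazole release for mitosis), protein amounts in NP-40 versus SDS lysates quantified by mass spectrometry, three biological replicates.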
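Throughout, for solubility in G1/S (NP-40 vs SDS abundance): HeLa Kyoto cells arrested at G1/S by double thymidine block, proteins quantified by TMT10plex mass spectrometry in mild NP-40 versus SDS extracts, three biological replicates.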
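Throughout, for thermal stability score vs G1/S (z-score of summed log2 fold changes over temperatures): synchronized HeLa Kyoto cells, proteins quantified by TMT10plex mass spectrometry, three biological replicates, mitosis taken 0.5 h after nocodazole release, G1/S directly after double thymidine block.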

Sequence | thermal stability score [1, 5] | thermal stability score ([1]; cell cycle stage: mitosis) | solubility in G1/S (log2) [2] | melting temperature ([3]; cell cycle stage: G1/S) | melting temperature ([3]; cell cycle stage: mitosis) | solubility change mitosis (log2) [4]
MAEAEGESLESWLNKATNPSNRQEDWEYIIGFCDQINKELEGPQIAVRLLAHKIQSPQEWEALQALTVLEACMKNCGRRFHNEVGKFRFLNELIKVVSPKYLGDRVSEKVKTKVIELLYSWTMALPEEAKIKDAYHMLKRQGIVQSDPPIPVDRTLIPSPPPRPKNPVFDDEEKSKLLAKLLKSKNPDDLQEANKLIKSMVKEDEARIQKVTKRLHTLEEVNNNVRLLSEMLLHYSQEDSSDGDRELMKELFDQCENKRRTLFKLASETEDNDNSLGDILQASDNLSRVINSYKTIIEGQVINGEVATLTLPDSEGNSQCSNQGTLIDLAELDTTNSLSSVLAPAPTPPSSGIPILPPPPQASGPPRSRSSSQAEATLGPSSTSNALSWLDEELLCLGLADPAPNVPPKESAGNSQWHLLQREQSDLDFFSPRPGTAACGASDAPLLQPSAPSSSSSQAPLPPPFPAPVVPASVPAPSAGSSLFSTGVAPALAPKVEPAVPGHHGLALGNSALHHLDALDQLLEEAKVTSGLVKPTTSPLIPTTTPARPLLPFSTGPGSPLFQPLSFQSQGSPPKGPELSLASIHVPLESIKPSSALPVTAYDKNGFRILFHFAKECPPGRPDVLVVVVSMLNTAPLPVKSIVLQAAVPKSMKVKLQPPSGTELSPFSPIQPPAAITQVMLLANPLKEKVRLRYKLTFALGEQLSTEVGEVDQFPPVEQWGNL [GGA3] | 1.01 | 0.468 | 0.445 | 50.1 °C | 50.7 °C | -0.218
MPGPAAGSRARVYAEVNSLRSREYWDYEAHVPSWGNQDDYQLVRKLGRGKYSEVFEAINITNNERVVVKILKPVKKKKIKREVKILENLRGGTNIIKLIDTVKDPVSKTPALVFEYINNTDFKQLYQILTDFDIRFYMYELLKALDYCHSKGIMHRDVKPHNVMIDHQQKKLRLIDWGLAEFYHPAQEYNVRVASRYFKGPELLVDYQMYDYSLDMWSLGCMLASMIFRREPFFHGQDNYDQLVRIAKVLGTEELYGYLKKYHIDLDPHFNDILGQHSRKRWENFIHSENRHLVSPEALDLLDKLLRYDHQQRLTAKEAMEHPYFYPVVKEQSQPCADNAVLSSGLTAAR [CSNK2A2] | 1.94 | 2.34 | -0.244 | 50.7 °C | 50.3 °C | 0.0267
MAAKSQPNIPKAKSLDGVTNDRTASQGQWGRAWEVDWFSLASVIFLLLFAPFIVYYFIMACDQYSCALTGPVVDIVTGHARLSDIWAKTPPITRKAAQLYTLWVTFQVLLYTSLPDFCHKFLPGYVGGIQEGAVTPAGVVNKYQINGLQAWLLTHLLWFANAHLLSWFSPTIIFDNWIPLLWCANILGYAVSTFAMVKGYFFPTSARDCKFTGNFFYNYMMGIEFNPRIGKWFDFKLFFNGRPGIVAWTLINLSFAAKQRELHSHVTNAMVLVNVLQAIYVIDFFWNETWYLKTIDICHDHFGWYLGWGDCVWLPYLYTLQGLYLVYHPVQLSTPHAVGVLLLGLVGYYIFRVANHQKDLFRRTDGRCLIWGRKPKVIECSYTSADGQRHHSKLLVSGFWGVARHFNYVGDLMGSLAYCLACGGGHLLPYFYIIYMAILLTHRCLRDEHRCASKYGRDWERYTAAVPYRLLPGIF [DHCR7] | 0.148 | -0.18 | -0.604 | 51 °C | 50.7 °C | -0.0769
MAAPAPGLISVFSSSQELGAALAQLVAQRAACCLAGARARFALGLSGGSLVSMLARELPAAVAPAGPASLARWTLGFCDERLVPFDHAESTYGLYRTHLLSRLPIPESQVITINPELPVEEAAEDYAKKLRQAFQGDSIPVFDLLILGVGPDGHTCSLFPDHPLLQEREKIVAPISDSPKPPPQRVTLTLPVLNAARTVIFVATGEGKAAVLKRILEDQEENPLPAALVQPHTGKLCWFLDEAAARLLTVPFEKHSTL [PGLS] | -2.51 | -2.63 | 0.254 | 54.8 °C | 55.2 °C | 0.237
MSAHNRGTELDLSWISKIQVNHPAVLRRAEQIQARRTVKKEWQAAWLLKAVTFIDLTTLSGDDTSSNIQRLCYKAKYPIREDLLKALNMHDKGITTAAVCVYPARVCDAVKALKAAGCNIPVASVAAGFPAGQTHLKTRLEEIRLAVEDGATEIDVVINRSLVLTGQWEALYDEIRQFRKACGEAHLKTILATGELGTLTNVYKASMIAMMAGSDFIKTSTGKETVNATFPVAIVMLRAIRDFFWKTGNKIGFKPAGGIRSAKDSLAWLSLVKEELGDEWLKPELFRIGASTLLSDIERQIYHHVTGRYAAYHDLPMS [DERA] | -3.39 | -3.58 | -0.131 | 56.1 °C | 56.1 °C | -0.0424
MMQGEAHPSASLIDRTIKMRKETEARKVVLAWGLLNVSMAGMIYTEMTGKLISSYYNVTYWPLWYIELALASLFSLNALFDFWRYFKYTVAPTSLVVSPGQQTLLGLKTAVVQTTPPHDLAATQIPPAPPSPSIQGQSVLSYSPSRSPSTSPKFTTSCMTGYSPQLQGLSSGGSGSYSPGVTYSPVSGYNKLASFSPSPPSPYPTTVGPVESSGLRSRYRSSPTVYNSPTDKEDYMTDLRTLDTFLRSEEEKQHRVKLGSPDSTSPSSSPTFWNYSRSMGDYAQTLKKFQYQLACRSQAPCANKDEADLSSKQAAEEVWARVAMNRQLLDHMDSWTAKFRNWINETILVPLVQEIESVSTQMRRMGCPELQIGEASITSLKQAALVKAPLIPTLNTIVQYLDLTPNQEYLFERIKELSQGGCMSSFRWNRGGDFKGRKWDTDLPTDSAIIMHVFCTYLDSRLPPHPKYPDGKTFTSQHFVQTPNKPDVTNENVFCIYQSAINPPHYELIYQRHVYNLPKGRNNMFHTLLMFLYIIKTKESGMLGRVNLGLSGVNILWIFGE [TMEM209] | 0.688 | 3.82 | 0.161 | 52 °C | 53.2 °C | -0.145
MAENHAQNKAKLISETRRRFEAEYVTDKSDKYDARDVERLQQDDNWVESYLSWRHNIVDETLKMLDESFQWRKEISVNDLNESSIPRWLLEIGVIYLHGYDKEGNKLFWIRVKYHVKDQKTILDKKKLIAFWLERYAKRENGKPVTVMFDLSETGINSIDMDFVRFIINCFKVYYPKYLSKIVIFDMPWLMNAAFKIVKTWLGPEAVSLLKFTSKNEVQDYVSVEYLPPHMGGTDPFKYSYPPLVDDDFQTPLCENGPITSEDETSSKEDIESDGKETLETISNEEQTPLLKKINPTESTSKAEENEKVDSKVKAFKKPLSVFKGPLLHISPAEELYFGSTESGEKKTLIVLTNVTKNIVAFKVRTTAPEKYRVKPSNSSCDPGASVDIVVSPHGGLTVSAQDRFLIMAAEMEQSSGTGPAELTQFWKEVPRNKVMEHRLRCHTVESSKPNTLTLKDNAFNMSDKTSEDICLQLSRLLESNRKLEDQVQRCIWFQQLLLSLTMLLLAFVTSFFYLLYS [MOSPD2] | 1.72 | 0.81 | -0.0365 | 51.4 °C | 51.4 °C | -0.115
MAATELRGVVGPGPAAIAALGGGGAGPPVVGGGGGRGDAGPGSGAASGTVVAAAAGGPGPGAGGVAAAGPAPAPPTGGSGGSGAGGSGSAREGWLFKWTNYIKGYQRRWFVLSNGLLSYYRSKAEMRHTCRGTINLATANITVEDSCNFIISNGGAQTYHLKASSEVERQRWVTALELAKAKAVKMLAESDESGDEESVSQTDKTELQNTLRTLSSKVEDLSTCNDLIAKHGTALQRSLSELESLKLPAESNEKIKQVNERATLFRITSNAMINACRDFLMLAQTHSKKWQKSLQYERDQRIRLEETLEQLAKQHNHLERAFRGATVLPANTPGNVGSGKDQCCSGKGDMSDEDDENEFFDAPEIITMPENLGHKRTGSNISGASSDISLDEQYKHQLEETKKEKRTRIPYKPNYSLNLWSIMKNCIGKELSKIPMPVNFNEPLSMLQRLTEDLEYHELLDRAAKCENSLEQLCYVAAFTVSSYSTTVFRTSKPFNPLLGETFELDRLEENGYRSLCEQVSHHPPAAAHHAESKNGWTLRQEIKITSKFRGKYLSIMPLGTIHCIFHATGHHYTWKKVTTTVHNIIVGKLWIDQSGEIDIVNHKTGDKCNLKFVPYSYFSRDVARKVTGEVTDPSGKVHFALLGTWDEKMECFKVQPVIGENGGDARQRGHEAEESRVMLWKRNPLPKNAENMYYFSELALTLNAWESGTAPTDSRLRPDQRLMENGRWDEANAEKQRLEEKQRLSRKKREAEAMKATEDGTPYDPYKALWFERKKDPVTKELTHIYRGEYWECKEKQDWSSCPDIF [OSBP] | -1.23 | -0.683 | -0.0183 | 52.1 °C | 51.9 °C | -0.212
